Consider one sequence from article PMC7734321.

Common to all, as to test: MST
What all share (conditions): N6 of strand 1 = tetrahydrofuran (F, abasic site analog), opposite G; MST: 50 mM Tris-HCl pH 7.5, 50 mM KCl, 1 mM EDTA, 1 mM DTT, 7% glycerol, 25 C, 10 min, 0.5 uM DNA; authors call Kd values estimates only

For series [1], the target named is T1, Fpg (formamidopyrimidine-DNA glycosylase) (Escherichia coli) (UniProt P05523).
T1 sequence: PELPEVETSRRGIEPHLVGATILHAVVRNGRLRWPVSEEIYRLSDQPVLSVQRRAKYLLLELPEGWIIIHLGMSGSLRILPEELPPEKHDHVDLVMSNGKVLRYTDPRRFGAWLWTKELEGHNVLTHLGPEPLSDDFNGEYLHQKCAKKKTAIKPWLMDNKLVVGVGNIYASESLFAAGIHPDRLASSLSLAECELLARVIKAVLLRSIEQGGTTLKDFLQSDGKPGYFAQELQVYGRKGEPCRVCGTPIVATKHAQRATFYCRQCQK

The target of series [2] is NEIL1 (endonuclease VIII-like 1) (Homo sapiens) (UniProt Q96FI4).
The target of series [3] is T2, NTH1 (endonuclease III) (Homo sapiens) (UniProt P78549).
T2 sequence: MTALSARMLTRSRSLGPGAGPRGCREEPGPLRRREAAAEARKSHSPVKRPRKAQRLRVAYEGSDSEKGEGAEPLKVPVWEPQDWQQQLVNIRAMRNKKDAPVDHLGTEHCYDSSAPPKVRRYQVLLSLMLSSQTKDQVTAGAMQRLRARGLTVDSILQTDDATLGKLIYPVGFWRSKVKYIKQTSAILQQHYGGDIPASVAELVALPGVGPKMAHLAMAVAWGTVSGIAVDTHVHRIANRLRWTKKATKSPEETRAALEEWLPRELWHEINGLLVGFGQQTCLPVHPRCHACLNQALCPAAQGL

Series [4] concerns the target T3, Nei (endonuclease VIII) (Escherichia coli) (UniProt P50465).
T3 sequence: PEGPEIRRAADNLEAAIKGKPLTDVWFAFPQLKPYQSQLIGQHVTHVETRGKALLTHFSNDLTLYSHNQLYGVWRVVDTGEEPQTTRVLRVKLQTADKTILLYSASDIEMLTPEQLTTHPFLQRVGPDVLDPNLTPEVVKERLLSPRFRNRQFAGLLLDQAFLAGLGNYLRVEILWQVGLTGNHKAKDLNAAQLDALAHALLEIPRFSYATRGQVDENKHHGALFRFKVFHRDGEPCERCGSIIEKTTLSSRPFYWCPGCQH

Series [5] has as its target OGG1 (8-oxoguanine-DNA glycosylase) (Homo sapiens) (UniProt O15527).

OGG1 (8-oxoguanine-DNA glycosylase) (Homo sapiens), sequence (O15527 whole entry): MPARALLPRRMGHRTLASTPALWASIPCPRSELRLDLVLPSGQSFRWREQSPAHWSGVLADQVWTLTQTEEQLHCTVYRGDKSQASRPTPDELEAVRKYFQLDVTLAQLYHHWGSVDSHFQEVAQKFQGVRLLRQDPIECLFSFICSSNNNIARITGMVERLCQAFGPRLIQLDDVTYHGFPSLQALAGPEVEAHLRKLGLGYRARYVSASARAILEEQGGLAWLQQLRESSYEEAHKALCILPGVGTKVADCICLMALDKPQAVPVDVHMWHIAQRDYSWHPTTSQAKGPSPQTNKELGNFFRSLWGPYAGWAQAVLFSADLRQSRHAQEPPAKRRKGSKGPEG
NEIL1 (endonuclease VIII-like 1) (Homo sapiens), sequence (Q96FI4 2-390): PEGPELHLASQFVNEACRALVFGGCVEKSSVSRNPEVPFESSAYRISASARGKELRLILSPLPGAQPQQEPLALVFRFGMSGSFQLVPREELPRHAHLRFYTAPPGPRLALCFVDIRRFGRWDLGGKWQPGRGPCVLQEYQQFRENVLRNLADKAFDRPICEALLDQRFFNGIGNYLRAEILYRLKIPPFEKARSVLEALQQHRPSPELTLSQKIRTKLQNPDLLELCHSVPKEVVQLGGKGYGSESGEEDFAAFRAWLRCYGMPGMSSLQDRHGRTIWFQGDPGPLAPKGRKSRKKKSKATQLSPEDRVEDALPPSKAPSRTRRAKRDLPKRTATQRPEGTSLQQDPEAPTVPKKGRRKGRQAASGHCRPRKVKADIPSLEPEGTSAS

As for “GCTCANGTACAGAGCTG / CAGCTCTGTACGTGAGC [F/G]”, the Kd in series [1] was 1.9 µM; in series [2] it was 4.4 µM; in series [3], 0.3 µM; in series [4], 0.5 µM; in series [5], 2.8 µM.
